Earlier results on one substance are cited in publication PMC11893814.

In the series the target is wild-type microtubule GTP cap (Homo sapiens) (UniProt P68363).
UniProt P68363, sequence (P68363 whole entry, chain 1 of 2): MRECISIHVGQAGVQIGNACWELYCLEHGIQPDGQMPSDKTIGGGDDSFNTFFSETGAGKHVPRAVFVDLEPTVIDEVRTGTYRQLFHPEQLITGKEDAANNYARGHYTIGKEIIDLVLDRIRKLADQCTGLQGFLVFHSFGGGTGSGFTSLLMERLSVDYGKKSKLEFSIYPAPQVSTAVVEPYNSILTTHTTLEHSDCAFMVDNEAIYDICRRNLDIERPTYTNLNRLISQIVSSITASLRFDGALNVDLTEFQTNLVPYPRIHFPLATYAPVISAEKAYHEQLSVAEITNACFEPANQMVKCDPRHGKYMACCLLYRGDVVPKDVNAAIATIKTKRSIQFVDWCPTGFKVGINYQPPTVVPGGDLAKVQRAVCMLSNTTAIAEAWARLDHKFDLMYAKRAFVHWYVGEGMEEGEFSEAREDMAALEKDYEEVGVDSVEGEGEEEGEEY
UniProt P68363, sequence (A8K854 whole entry, chain 2 of 2, further chain): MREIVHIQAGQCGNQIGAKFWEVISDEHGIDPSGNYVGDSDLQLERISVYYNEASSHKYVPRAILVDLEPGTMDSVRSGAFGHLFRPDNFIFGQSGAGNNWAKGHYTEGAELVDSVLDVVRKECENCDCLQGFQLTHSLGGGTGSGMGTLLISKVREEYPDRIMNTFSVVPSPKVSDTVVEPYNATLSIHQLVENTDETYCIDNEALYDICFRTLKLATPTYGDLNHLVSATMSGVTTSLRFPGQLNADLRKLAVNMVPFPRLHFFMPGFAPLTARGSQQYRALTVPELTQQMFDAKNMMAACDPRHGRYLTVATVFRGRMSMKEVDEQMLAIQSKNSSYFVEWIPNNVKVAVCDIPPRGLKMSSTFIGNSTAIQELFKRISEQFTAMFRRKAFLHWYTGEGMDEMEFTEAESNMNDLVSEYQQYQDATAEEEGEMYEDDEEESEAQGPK

Regarding EB3 (from UniProt Q9UPY8), the Kd is 39.6 nM.
